Test results published in publication PMC11841054 (Journal of Bacteriology, 2025).

Target: GlnA3Mt (Rv1878), gamma-glutamylspermine synthetase of Mycobacterium tuberculosis (Mycobacterium tuberculosis H37Rv) (UniProt O07752)
Assay: SEC

Q: “GlnA3Mt (Rv1878), gamma-glutamylspermine synthetase of Mycobacterium tuberculosis (from UniProt O07752 1-450) (enzyme)” was tested. Which stoichiometry N did it give?
A: 12
